Experimental data from the DeepSol protein solubility set.

Test: soluble on expression in E. coli; label from the status in PepcDB or PDB records

| Sequence | soluble on expression in E. coli |
| --- | --- |
| MSLKVRNLNISLKNNLLLKDINLDIKTGKTLMILGQSGVGKSLLGKALVRLLDSNFTISFDELSFHNSCIFNFNKEELRNFRSKVALVLQDAELSLYPYLDIGNLCHLVLKTHTKLKQKERKDYAFSYFQKLGFENLDRLWHSYANELSLGMARRVSLALALLNQPQILICDEITASLDKENASKIISILEELKNTAALVCITHDLNLVNSLADEILMLEKNSSNLYSLDEFLRYYNAEGHHHHHH | soluble |
| GPGSMQVINENSLREFYAHVYPVELVTQWLSYRLSQPRLSAGSSVAVVKGEPTAVSGEESKDGVRHVLGIKAEPCDAVGAAAGADDEDKEWLNGKGAAAAEGYLARREFCFTLIGDIFTRFRSYRSSEELRAELVRCFPEKIDVGAVYNIRPNQKQGLANVFPVERELVFDIDMSDYDNVRSCCSGKSICSYCWAWMSCAAHVLHTVLRDDFGFKYILPVFSGRRGIHLWVCDRRARRMTNDERTALVGYLTVVAPKTLRSTIVADLANHRLIHPTIRHVLRTQLDRAFTSLFVASSSDNPNNIQHHPTAAYIVHDATSAVLKLGRRDALNRFQQHVHFQQGNVLDWATYLRALGSEQEATDILHAVQLLLMYPRLDEHVSTRRDHLLKLPFCVHPGTASLCCPLEWDEVDGFHPTEDAPKLHEMLLSRSLDVRWTLPLERMLKDMRTDEDENSS | not soluble |
| MGSDKIHHHHHHMEYVNIKLPYDKKQITAKIYKRNLAGILVSKSENYKNSLSEKELVEKSLDNPIASPKLEELVKGKKNIVLISSDHTRPVPSKIITPILLRRIRSVEPNANIIILVATGFHRPSTHEELVDKYGEEIVKRENIVMHVSTDDSAMVQIGTLPSGGPCIINKIAAEADLLIAEGFIESHFFAGFSGGRKSVLPGIASYKTIMANHCGEFINSNKARTGNIKCNPIHEDMVYAARTAGLKFILNVVLDGNKKIIGSFAGDVEKAHETGCDFVKDLARVKKVPCDIAVSTNGGYPLDQNIYQAVKGMTAAEATNKENGVIIMVAGCRDGHGGEGFYKNLANVKTPEEFLEKAIHTERQKTIPDQWTSQILARILSKHHVIMVSDLVDQKLICGMHMELVSNFEEALERAYKIEGKDAKVTVIPDGLSVIVE | not soluble |
| MGSDKIHHHHHHMKNIHSIEFYTGSKEELLPDFEKDFPYIASRAELDKYIGGYVPWHWHRTVELFYMESGSIEYDTPGGKILFPAGSGGMINPNVLHMTKAISQREKNIQLLHIFDVSLLAGEQGSRIEQKYIAPVITAPQIEVIPLFPGNAEEERILKLLAASFRLSSDEFGYEIKLREALTEIWLMLFELSCSMREKKGEHNKSNDKIKLMMIYIHEHYREKISILELAAAAYLSERECYRVFHDCLHMTPVEYITTYRLQIACQMLAKGQEPITVISHECGLGSSSYFGKVFREYAYCSPTEYRKKWQNSDM | not soluble |
| MQQPINYIMNIMHLERDLKRLTSNWSSATGLSLNELRILVYVEQHPGIQIGDVANALNVAKASLAQNIGTLITQGWLKSQPIKQDRRLRVLTLTKAGQDRMKDVDAQLTKSLDTTPATQLADQLSALQL | not soluble |
| SADESDMRNELNDIQARADQLGDESLESTRRMLQLVEESKDAGIRTLVMLDEQGEQLERIEEGMDQINKDMKEAEKNLTDLGNLCGLCPCPCNKLKGGGQSWGNNQDGVVSSQPARVVDEREQMAISGGFIRRVTNDARENEMDENLEQVGSIIGNLRHMALDMGNEIDTQNRQIDRIMDMADSNKTRIDEANQRATKMLGSG | soluble |
| GALPSHNKASFTDEEDEFILDVVRKNPTRRTTHTLYDEISHYVPNHTGNSIRHRFRVYLSKRLEYVYEVDKFGKLVRDDDGNLIKTKVLPPSIKRKFSADEDYTLAIAVKKQFYRDLFQIDPDTGRSLITDEDTPTAIARRNMTMDPNHVPGSEPNFAAYRTQSRRGPIAREFFKHFAEEHAAHTENAWRDRFRKFLLAYGIDDYISYYEAEKAQNREPEPMKNLTNRPKRPGVPTPGNYNSAAKR | soluble |
| MSDLPRKAVTRTAKLAALPLGFAGRATWGLGKRIVGESAEIVGQQLQQRTAEQLFKVLGELKGGAMKFGQALSVFESALPEEVAGPYRAALTKLQEAAPPMPTRTVHSVLAERLGEDWQELFLEFEDKPAAAASIGQVHRGVWQDGREVAVKVQYPGAGEALLSDLNQLSRFARLLGPLVPGMDIKPLITELKDRVSEELDYDLEAQAQRTHAEVFDDDPDIVVPDVIHQCEQVLITEWIDGIPMSEIISNGTQEQRDRAGQLLAHFLFSGPARTGLLHADPHPGNFRLLPGGPRGEDDWRLGVLDFGTVDRLPGGLPEPIGEALRMTLDGEAEAVYEMLCAEGFVKESIELAPDAVLEYLLPIIEPARVDAFTFTRGWMRSQAARIGDPRSPAYQLAKQLNLPPAYLLIHRVTLSTIGVLCQLGATVRLRDELEEWLVGFVAEGEAEVEEGEEADEDVYETEGTAAEALEHHHHHH | not soluble |
| MGSDKIHHHHHHQGPQCNHAQLPFQQMTPVPYDSTPYSPQDTMPEQCSNPEVEAYIADWEAGKIDFTTIKANDSIAADQRFCKTLDDDGNISEVKDCDRTKSPVGYIWKELSDSPVVIGITDGGKSDHAPHFHGQPECYYVVNGEGQTLADNQFKKLGTGQYFYIPGATIHNTPIMSEKGLGVIYWYPNNAHFDGFKYYWRKDVKNLRVAEEAFDRVDAIRKRDLNLGPYGTNEAFFKK | not soluble |
| MSLQAPMALVPVRTIYPGEAISPEQVKSVEVTNPNISAGYASDISEVEGMISKQTLLPGRTIPIAALREPSLVVRGTSVKLVFHIGNMTLMASGTPMSDGSLGEVVRVRNIDSGVMVSGTVMKDGTIQVMAKEGHHHHHH | soluble |
| SEDKKKKRSPKPCLTQQAQAPGTLRRVPVPTSHSGSLALGLPHLPSPKQRAKFKRAGKEKCRPVLAGGGGGSAGTPLQHSFLTEVTDVYEMEGGLLNLLNDFHSGRLQAFGKECSFEQLEHVREMQEKLARLHFSLDVCGEEEDEEEEEDGVTEGLPEEQKKTMADRNLDQLLSNLEDLSNSIQKLHLAENAEPEDQPAA | soluble |
| MLAVSGLARSTFFDHQRRLDKPDKYADLKEQITTIFHDSNATFGYRRIWRALRNNNTIVNKKVVQRLMREQGLVSKIRRKKYNSYRGTVSHIADNVLGRRFIQDAPNKVWVSDVTEFRVAGTKVYLSPVMDLFDRTILAHTLSTSPNTQLTSRSLADAIAMFSPGKGLIVHTDQGFQYQHASWRTLIKSVGGVQSMSRKGNCYDNAVMENFFGHLKSEMYYGASFTSVDELCQAIDEYILWYNTYRLQERFKGLAPMQYRNQTLAKTLTV | not soluble |
| VNEIVVNPNATLDWQLALRQAAGKTDLARDMLQMLLDFLPEVRNKVEEQLVGENPEGLVDLIHKLHGSCGYSGVPRMKNLCQLIEQQLRSGTKEEDLEPELLELLDEMDNVAREASKIL | not soluble |
| MSLKYVKSLFEIHPDIATKFRIKNQYLKTGYMNVLLCLIETVRRSPKEISKNDLADAYVALESLTDHGFKLDWLKKKLDQVTQKKEKEAAGETRMHEIGEELKDLKLKCSDLEAQLDKVKWKCSDLEAQLVKEKADVLAAIAPLGSSDDGVFDDFFEKQYTGFVRKYQIGASQTWFLLLNSRPKIVDFWSRANSKALLKARFLKLLAYAMCQNQKAWMSTGFMFYLPKRLLAFPKGNDTKSDHLSLYLDVAESESLPCGWRRHAQFSFTIVNHIPEKCSQRKDGEGSSFYEEIQLGHQEFLLFAIAENILASVRDARLQEGHHHHHH | not soluble |
| MSGKPPAIFLMGPTAAGKTDLAIELTTVLPCELISVDSALVYRGMDIGSAKPSKEVLAAHPHRLIDILDPAQSYSAAQFRADALEAMAEITARGKIPLLVGGTMLYYKALIDGLADMPAADATVRAELEAQAEALGLAELHRQLAEVDPESAARIHPNDPQRLIRALEVYRVSGESMTAHRRRQFAESRGADAGAGGHLPYTVASLAIAPTDRHILHQRIALRFSQMLEQGFVDEVRSLRARSDLHAGLPSIRAVGYRQVWDYLDGKLTENEMRERGIIATRQLAKRQFTWLRGWPEVHWLDSLACDNLSRTLKYLGAISILSLEHHHHHH | soluble |
| MVARISVGKNLYGALAYNQNKVDEGGAKVLSAHLLRYPEDGRFRPDESVRQFLEWMPNHYRTEKPVIHISLNPHPDDVLTDGQLAEIGREYMQRLGYGNQPYLVFKHEDIGRHHIHIVSLRVDSEGRKVSDKFEYRRSKEITELLEQKYGLHPAEGRKKGEEWQLKPVDVAKGDIKRQIACTLKPLLELYSFRTMGELRALLSLYNIGVEEVKGEIGGRTYHGILYTALDGNGETAATPIKSSRLGRTAGAQQLDRKMRESAARIKSAPCRERLRPLVADALRQSVDERDFRDRLAKEQIDLVLRRNGTDRIYGVTFIDHRSRTVLNGSRLGKEFSANMLNGHFQEQPPNSLSPLLPPVPSAVASGNGEKIPGGLLSDMEPELNYVPRYPKLLKPDKKKRRRRYGRQDLEHHHHHH | soluble |
| MSLDVKNLAKWKKVPPVSDRIANTFVALKMLREVDEEHNPVLFSKAHRDNIYTVIDISHESPVYNPASLEAGGIHYQKYPTVSKIPPTPDEVRDFIALVDRLQKEITEKMEKSNTSGAARLRPVVGVHCHYGFNRTGFLIVSYLIERCGFGVQEAIDEFEKRRPPGIRHAHFIDTLFVRYCVGLKRAPTEGHHHHHH | not soluble |
| MVNRIQNPILPGFHPDPSIVRVGDDYYIATSTFEWFPGVRIHHSRDLKHWRFVSSPLTRTSQLDMKGNMNSGGIWAPCLSYHDGTFYLIYTDVKQWHGAFKDAHNYLVTAQNIEGPWSDPIYLNSSGFDPSLFHDDDGRKWLVNMIWDYRKGNHPFAGIILQEYSEAEQKLVGPVKNIYKGTDIQLTEGPHLYKKDGYYYLLVAEGGTEYEHAATLARSQSIDGPYETDPSYPLVTSTGQPELALQKAGHGSLVETQNGEWYLAHLCGRPLKGKYCTLGRETAIQKVNWTEDGWLRIEDGGNHPLREVTAPDLPEHPFEKEPELDDFDAPQLHHQWNTLRIPADPSWCSLEERPGHLRLRGMESLTSVHSQSLVARRQQSFHCEVETKLEYQPESFQHMAGLVIYYDTEDHVYLHVTWHEEKGKCLQIIQTKGGNYDELLASPIPLAEEKAVYLKGRIHRETMHLYFKQEGEAEWQPVGPTIDVTHMSDDSAKQVRFTGTFVGMATQDLSGTKKPADFDYFRYKELDQ | soluble |
| MEQSFTADINEINITNGKLDFSDSSLTPKFSAGIYSLNGDITGLSSNEDSRAKIDLKGKVDKYAPVIIKGSVNPLSHDAFTDIDMLFNGIELTTFTPYSGKFAGYAIDKGKLSLGLNYKLSNNKLVAENNVTLDQLTLGEVVNSEEATSLPIKFALSLLKDSDGLEHHHHHH | soluble |
| MAHHHHHHMGDHLGSRFTVIEQIGSGNYGSLYRVIDGEAATLADRIIATKKLQDTINHPHVLREVSAQRHAQKCSPHIVKLLHVVPRDRVRAALVLEYVPLDLRTFLNAFYCNQAKSSAPTWCATAGADELKSAAAPPCHIPLIYVRRMLRGLIEALHCLHARGIAHRDVKPENILVEPLGLGHPLRCVCPPMGSFGPAGEAAGCWVHAPHCPDPRQEERGVTRPMQPQGTLEPCQFFRRYSVALHHELTGDELASAIHRLHCETCRPCPCARAGAGKHAPQQHRDSSEMKTGNSCAQERQADAVDEESPANVDDGEADKLTAPMSPPLMPDVKLCDFGSARHIGTLRLRSAEEQREELTPGPTTPVYCAPEMMLLQRYGTSVDMWAVGAILFEMLTGEFFLGVGTLRSFSGDVVVRDDYCVMHRLNRMFRHLGTPSVEEWRCIAHPHYYPDEMLAHLPQVRDAALFRCLAQPIDTDGSFRRDSGDIKSNGDAKTADVQTDLNVRPSAGTCSCAQAPVNGTTDSHAARASAPPRDATAARHPLNVSDFLYQHIGESGVDFLRSLLRYDPAKRMTSAEALRHPFLSPEVANM | not soluble |
